Our source for the Km values is US8227212B2, “Cell that expresses a sulfatase and a formylglycine generating enzyme” (Shire Human Genetic Therapies, Inc., priority 2003, dated 2012).

Usually Km stands for the concentration of substrate that gives half-maximal velocity.

Substrate in this series: CSCC[C@H](NC(C)=O)C(=O)N[C@H](C(=O)N[C@@H](CC(=O)O)C(=O)N[C@@H](Cc1ccccc1)C(=O)N[C@@H](Cc1ccc(O)cc1)C(=O)N[C@H](C(=O)N1CCC[C@H]1C(=O)N[C@H](C(=O)N[C@@H](CO)C(=O)N[C@@H](CC(C)C)C(=O)N[C@@H](CS)C(=O)N[C@H](C(=O)N1CCC[C@H]1C(=O)N[C@@H](CO)C(=O)N[C@@H](CCCNC(=N)N)C(=O)N[C@@H](C)C(=O)N[C@@H](C)C(=O)N[C@@H](CC(C)C)C(=O)N[C@@H](CC(C)C)C(=O)N[C@H](C(=O)NCC(=O)N[C@@H](CCCNC(=N)N)C(=O)N[C@@H](CO)C(N)=O)[C@@H](C)O)[C@@H](C)O)C(C)C)C(C)C)[C@@H](C)O
Nature of the series: In vitro assay for FGE with peptide P23 as substrate (MALDI-TOF). It is filed as biochemical, bovine. The settings on record: other: standard conditions; pH 9.0; 37.0 °C. How it is done: For monitoring the activity of FGE, the N-acetylated and C-amidated 23mer peptide P23 ([…]) (SEQ ID NO:33) was used as substrate. The conversion of the Cysteine residue in position 11 to FGly was monitored by MALDI-TOF mass spectrometry. A 6 μM stock solution of P23 in 30% acetonitrile and 0.1% trifluoroacetic acid (TFA) was prepared. Under standard conditions 6 pmol of P23 were incubated at 37° C. with up to 10 μl enzyme in a final volume of 30 μl 50 mM Tris/HCl, pH 9.0, containing 67 mM NaCl, 15 μM CaCl2, 2 mM DTT, and 0.33 mg/ml bovine serum albumin. To stop the enzyme reaction 1.5 μl 10% TFA were added. […] Activity (pmol product/h) was calculated on the basis of the peak height of the product divided by the sum of the peak heights of P23 and the product.
We had developed an assay for determining FGE activity in microsome extracts using in vitro synthesized [^35S] […] The quantitation of the product included tryptic digestion, separation of the peptides by RP-HPLC and identification and quantitation of the [^35S]-labeled FGly containing tryptic peptide by a combination of chemical derivatization to hydrazones, RP-HPLC separation and liquid scintillation counting (Fey et al., J. Biol. Chem., 2001, 276:47021-47028). […] The cysteine and the FGly containing forms of P23 could be identified and quantified by matrix-assisted laser desorption/ionisation time of flight (MALDI-TOF) mass spectrometry. […]

B1: FGE (Bos taurus) (protein)
chain: GEEAGPEAGAPSLVGSCGCGNPQRPGAQGSSAAAHRYSREANAPGSVPGGRPSPPTKMVPIPAGVFTMGTDDPQIKQDGEAPARRVAIDAFYMDAYEVSNAEFEKFVNSTGYLTEAEKFGDSFVFEGMLSEQVKSDIQQAVAAAPWWLPVKGANWRHPEGPDSTVLHRPDHPVLHVSWNDAVAYCTWAGKRLPTEAEWEYSCRGGLQNRLFPWGNKLQPKGQHYANIWQGEFPVTNTGEDGFRGTAPVDAFPPNGYGLYNIVGNAWEWTSDWWTVHHSAEETINPKGPPSGKDRVKKGGSYMCHKSYCYRYRCAARSQNTPDSSASNLGFRCAADHLPTTG
notes: the soluble fraction (reticuloplasm) of bovine testis microsomes served as the starting material; from tissue; host or cells: bovine testis rough microsomes, reticuloplasm
Turning to B1, the Km amounted to 0.013 µM.
